Test results reported in EP4588939A1 (Universitat de Barcelona, dated 2025).

T1: human IL13Rα2 (interleukin-13 receptor subunit alpha-2) (human, UniProt Q14627 27-380)
T1 construct: whole, on cells; also called IL13Ra2
T1 sequence (looked up): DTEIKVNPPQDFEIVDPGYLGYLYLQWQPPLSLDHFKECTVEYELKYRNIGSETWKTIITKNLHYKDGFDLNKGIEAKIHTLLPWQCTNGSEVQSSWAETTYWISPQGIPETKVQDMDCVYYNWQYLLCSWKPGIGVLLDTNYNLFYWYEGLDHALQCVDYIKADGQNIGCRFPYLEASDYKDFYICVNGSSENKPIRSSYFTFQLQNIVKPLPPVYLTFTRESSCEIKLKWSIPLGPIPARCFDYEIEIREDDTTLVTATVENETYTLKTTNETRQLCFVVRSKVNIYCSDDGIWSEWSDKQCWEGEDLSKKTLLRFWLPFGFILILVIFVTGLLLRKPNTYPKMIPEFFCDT


Molecular target: T1, human IL13Rα2 (interleukin-13 receptor …)
Assay: flow cytometry of hybridoma supernatants on IL13Rα2-transfected 300.19 cells; specificity further validated on IL13Rα2-transfected COS cells and U251 cells

Row | Binder | binding result
1 | 6A murine anti-IL13Rα2 monoclonal antibody (antibody, V domains shown, Tested as hybridoma supernatant; also called IL13Rα2_6A; clone 6A) VH: EVQLQQSGPELVKPGASVKISCKTSGYTFTEYTMHWVKQSHGKSLEWIGIINPNNGGTNYNQKFKGKATLTVDKSSSTAYMELRSLTSEDSAVYYCARPSATHYFDYWGQGTTLTVSS VL: DIKMTQSPSSMYASLGERVTITCKASQDIKSYLSWFQQKPGKSPKTLIYRANRLVDGVPSRFSGSGSGQDYSLTISSLEYEDMGIYYCLQYDEFPLTFGAGTKLELK | binds
2 | 46A murine anti-IL13Rα2 monoclonal antibody (antibody, V domains shown, Tested as hybridoma supernatant; also called IL13Rα2_46A; clone 46A) VH: QVQLKQSGPGLVQPSQSLSITCTVSGFSITKYGVHWVRLSPGKGLEWLGVIWSGGSTDYNAAFISRLNISKDNSKSQVFFKMNSLQANDTAIYYCARDFGDTMDYWGQGTSVTVSS VL: QIVLTQSPAIMSASLGERVTMTCTASSSVTSSYLHWYQQKPGSSPKLWIFSTSNLASGVPARFSGSGSGTSYSLTISSMEAEDAATYYCHQYHRSPLTFGAGTKLELK | binds
3 | 82B murine anti-IL13Rα2 monoclonal antibody (antibody, V domains shown, Tested as hybridoma supernatant; also called IL13Rα2_82B; clone 82B) VH: QVQLKQSGPGLVQPSQSLSITCTVSGFSLTSYGVHWVRQSPGKGLEWLGVIWSGGSTDYNAAFISRLSISKDNSKSQVFFKMNSLQANDTAIYYCARDRYDAFDYWGQGTTLTVSS VL: QIVLTQSPAIMSASLGERVTMTCTASSSVSSSYLHWYQQKPGSSPKLWIYSTSNLASGVPARFSGSGSGTSYSLTISSMEAEDAATYYCHQYHRSPLTFGAGTKLELK | binds
4 | 143A murine anti-IL13Rα2 monoclonal antibody (antibody, V domains shown, Tested as hybridoma supernatant; also called IL13Rα2_143A; clone 143A) VH: DVQLVESGGGLVQPGGSRKLSCAASGFTFSSFGMHWVRQAPEKGLEWVAYISSGSSTIYYADTVKGRFIISRDNPKNTLFLQMTSLRSEDTAMYYCARKYEGYAMDYWGQGTSVTVSS VL: DIKMTQSPSSMYASLGERVTITCKASQDINSYLSWFQQKPGKSPKTLIYRANRLVDGVPSRFSGSGSGQDYSLTISSLEYEDMGIYSCLQYDEFPLTFGAGTKLELK | binds
